# In patent publication US20100209426A1, “INHIBITORS OF PROGASTRIN-INDUCED REPRESSION OF ICAT FOR TREATING AND/OR PREVENTING COLORECTAL CANCER, ADENOMATOUS POLYPOSIS OR METASTASIS DISPLAYING PROGASTRIN-SECRETING CELLS AND CELLS IN WHICH THE BETA-CATENIN/TCF-MEDIATED TRANSCRIPTIONAL PATHWAY IS CONSTITUTIVELY ACTIVE” (INSERM (INSTITUT NATIONAL DE LA SANTE ET DE LA REC HERCHE …, priority 2006, published 2010):
# Where no end group is shown, it is not given here.
# B1: short hairpin RNA (shRNA), directed against the GAST gene: progastrin shRNA, oligonucleotides SEQ ID No 1 and SEQ ID No 2 cloned into pSilencer vector, stably expressed in SW480 cells (nucleic acid)
# DNA 1: GAAGAAGCCTATGGATGGATTCAAGAGAAGGTAGGTATCCGAAGAAGTTTTTT
# DNA 2: AATTAAAAAACTTCTTCGGATACCTACCTTCTCTTGAATCCATCCATAGGCTTCTTCGGCC
# B2: recombinant progastrin: full-length progastrin (1-80) prohormone encoded by the GAST gene; recombinant peptide or secreted by CRC cells (protein)
# chain: SWKPRSQQPDAPLGTGANRDLELPWLEQQGPASHHRRQLGPQGPPHLVADPSKKQGPWLEEEEEAYGWMDFGRRSAEDEN
# B3: glycine-extended gastrin17: glycine-extended gastrin, one of the products of progastrin maturation (peptide)
# peptide: B2 chain
# Key:
# [1] = tested on: β-catenin/Tcf-4 transcriptional activity; test: TOP/FOP Luciferase reporter gene assay in SW480 cells; type: cell-based
# Procedure: The protocol used to measure the transcriptional activity of TCF/LEF-1 was described before (Morin et al., 1997). Briefly, cells were transfected with 500 ng of TCF/LEF-1 reporter (pTOP-FLASH), or control vector (pFOP-FLASH) and with 25 ng pCMV-Renilla. Luciferase activity was quantified using the Dual luciferase reporter assay system (Promega), and was normalized relative to the activity of Renilla.
# ICAT = ICAT expression in SW480 cells (RT-QPCR, immunoblotting); type: cell-based, human
# Procedure: (§1) 2.5 μg of total RNA was pretreated with DNAse RQ1 (Promega) for 30 min at 37° C. and used for reverse transcription with M-MLV reverse transcriptase (In vitrogen). Quantitative PCR was carried out using the LightCycler FastStart DNA MasterPlus SYBR Green I kit (Roche Diagnostics, Meylan, France), under the following conditions: Actin: denaturation during 10 min at 95° C., amplification for 50 cycles: 10 sec at 95° C., 6 sec at 58° C., 11 sec at 72° C. Melting curve: 0 sec at 95° C., 30 sec at 68° C., 0 sec at 95° C. and cooling was for 2 min at 40° C.: c-myc, ILK, chromogranin A and GAPDH amplification: denaturation during 10 min at 95° C., amplification for 50 cycles: 10 sec at 70° C., 6 sec at 58° C., 13 sec at 72° C. The melting curve was 0 sec at 95° C., 30 sec at 80° C., 0 sec at 95° C. and cooling was for 2 min at 40° C. Progastrin, Muc-2, ALP and ICAT amplification: denaturation during 10 min at 95° C., amplification during 50 cycles with: 10 sec at 70° C., 6 sec at 95° C., 11 sec at 72° C. The melting curve was 0 sec at 95° C., 30 sec at 80° C., 0 sec at 70° C. and cooling was for 2 min at 40° C. […]
# (§2) Protein lysates, immunoprecipitations and immunoblotting were performed as described before (Hollande et al., 2003) Proteins were visualized using ECL Plus (Amersham Biosciences) and the bands were quantified by densitometry using ImageJ 1.32J (NIH, Bethesda, Md.).
# SW480 cells [2] = test: Differentiation and apoptosis of SW480 cells after transient siRNA transfection; type: cell-based, human
# Procedure: The day before transfection, SW480 cells were seeded in 24-well plates (5×10^4 cells/well). Cells were transfected with 100 pmol of rhodamine tagged GAS-specific or β-galactosidase-specific […], and 5 μl/well of Exgen 500 (Euromedex), according to the manufacturer's instructions. 48 hr or 72 hr after transfection, cells were lysed (for immunoblotting and PCR) or fixed in 1% paraformaldehyde for immunostaining.
# 2.5 μg of total RNA was pretreated with DNAse RQ1 (Promega) for 30 min at 37° C. and used for reverse transcription with M-MLV reverse transcriptase (In vitrogen). Quantitative PCR was carried out using the LightCycler FastStart DNA MasterPlus SYBR Green I kit (Roche Diagnostics, Meylan, France), under the following conditions: Actin: denaturation during 10 min at 95° C., amplification for 50 cycles: 10 sec at 95° C., 6 sec at 58° C., 11 sec at 72° C. Melting curve: 0 sec at 95° C., 30 sec at 68° C., 0 sec at 95° C. and cooling was for 2 min at 40° C.: c-myc, ILK, chromogranin A and GAPDH amplification: denaturation during 10 min at 95° C., amplification for 50 cycles: 10 sec at 70° C., 6 sec at 58° C., 13 sec at 72° C. The melting curve was 0 sec at 95° C., 30 sec at 80° C., 0 sec at 95° C. and cooling was for 2 min at 40° C. Progastrin, Muc-2, ALP and ICAT amplification: denaturation during 10 min at 95° C., amplification during 50 cycles with: 10 sec at 70° C., 6 sec at 95° C., 11 sec at 72° C. The melting curve was 0 sec at 95° C., 30 sec at 80° C., 0 sec at 70° C. and cooling was for 2 min at 40° C. Primers used for amplification of selected genes were: GAPDH-sense: 5′[…]3′ (SEQ ID No 9) antisense: 5′[…]3′ (SEQ ID No 10); Actin-sense: 5′[…]3′ (SEQ ID No 11); antisense: 5′[…]3′ (SEQ ID No 12); ILK-sense: 5′[…]3′ (SEQ ID No 13); antisense: 5′ […]3′ (SEQ ID No 14); ICAT-sense: 5′[…]3′ (SEQ ID No 15); antisense: 5′[…]3′ (SEQ ID No 16); c-myc-sense: 5′[…]3′ (SEQ ID No 17); antisense: 5′[…]3′ (SEQ ID No 18); human progastrin-sense: 5′[…]3′ (SEQ ID No 19); antisense: 5′[…]3′ (SEQ ID No 20); Muc-2-sense: 5′[…]3′ (SEQ ID No 21); antisense: 5′[…]3′ (SEQ ID No 22); Alkaline Phosphatase-sense: 5′[…]3′ (SEQ ID No 23); antisense: 5′[…]3′ (SEQ ID No 24); Chromogranin A-sense: 5′[…]3′ (SEQ ID No 25); antisense: 5′[…]3′ (SEQ ID No 26).
# (§3) Immunofluorescent staining was performed as described previously (Hollande et al., 2003) Slides were then observed using a laser scanning LEICA sp2 confocal microscope with a x40 oil immersion lens.
# SW480 cells [3] = test: Tumor formation of SW480 cells injected subcutaneously in BALB/c nude mice; type: in vivo, mouse; settings: SW480/GAST(−) cells stably expressing shRNA, subcutaneous injection in Balbc/nude mice, within 7 weeks, versus SW480/βgal(−)
# Text: Transfection of gastrin gene antisense and control cDNA into DLD1 cell lines was described in (Hollande et al., 2003). In order to generate progastrin shRNA, the following oligonucleotides were cloned into pSilencer vector (Ambion) and transfected in SW480 cells: sense: 5′-[…] TT-3′ (SEQ ID No 1) and antisense: 5′-[…] 3′ (SEQ ID No 2). β-galactosidase oligonucleotides used to generate control shRNA were: sense: 5′ […] 3′ (SEQ ID No 3); antisense 5′[…] 3′ (SEQ ID No 4). 5×10^4 cells/well were seeded and transfected 24 h later with 500 ng of pSilencer/progastrin-shRNA or pSilencer/β-galactosidase-shRNA, 50 ng of pcDNA-3, and 5 μl/well of Exgen 500 (Euromedex). Selection was performed with Neomycin (500 ng/μl).
# In vivo experiments were performed following the French guidelines for experimental animal studies (Direction des Services Vétérinaires, Ministére de l'Agriculture, Agreement N^oB34-172-27) and fulfill the UKCCCR guidelines for the welfare of animals in experimental neoplasia. 2×10^6 cells were injected subcutaneously into 6-weeks-old athymic BALB/c-nu/nu (nude) mice. Tumor growth was followed regularly thereafter (Estimated tumor volume=(Length×width×thickness)/2).
# [4] = tested on: nuclear compartmentation of β-catenin and Tcf-4; test: Immunofluorescent staining of β-catenin and Tcf-4 in SW480 cells; type: cell-based, human; settings: SW480/GAST(−) cells, 5 nM recombinant progastrin
# Procedure: as §3
# [5] = tested on: Tcf-4 target genes (c-myc, cyclin D1, Sox-9 and claudin-1); test: Expression of Tcf-4 target genes in SW480/GAST(−) cells; type: cell-based, human; settings: progastrin-depleted SW480/GAST(−) cells, treatment with the recombinant peptide (5 nM, 72 h)
# Procedure: as §1, §2
# [6] = tested on: β-catenin/Tcf-4 and β-catenin/ICAT association; test: Co-immunoprecipitation of dephosphorylated β-catenin with Tcf-4 and ICAT in SW480 cells; type: cell-based, human; settings: SW480/GAST(−) cells treated with recombinant progastrin
# Procedure: as §2
# Akt/PKB = test: Ser473 phosphorylation of Akt/PKB in SW480 cells (Western blotting); type: cell-based, human; settings: SW480/GAST(−) cells, 5 nM recombinant progastrin
# Procedure: as §2
# ILK = ILK expression and immune complex kinase assay in SW480 cells; type: cell-based, human; settings: SW480/GAST(−) cells, 5 nM recombinant progastrin
# Procedure: as §2
# The reaction was started by the addition of 25 μl of kinase buffer (50 mM Hepes pH 7.0, 1 mM MnCl2, 1 mM Na orthovanadate, 2 mM NaF, 5 μg Myelin Basic Protein (Sigma)) with 0.5 μg of ATP ([…], 1 μCi[γ-^32P]ATP) per tube, and incubated at 30° C. for 20 min. The reaction was terminated with the addition of 10 μl of 4× sample buffer. The tubes were centrifuged at 10,000 g for 1 min and the proteins were resolved on a 14% SDS-page gel. Phosphorylation of the substrate was visualized by autoradiography (Marotta et al., 2003).
# [7] = treatment of CRC cells with short gastrin forms or CCK-B receptor antagonist (FIG. S2)
# [8] = transient transfection with siRNA
# [9] = amidated and glycine-extended gastrins
molecule,measurement,setting,value
"Cc1cccc(NC(=O)N[C@@H]2N=C(c3ccccc3)c3ccccc3N(C)C2=O)c1 [L365, 260]",β-catenin/Tcf-4 activity,[1]; [7],did not affect
COc1cccc(-c2cc(=O)c3ccccc3o2)c1N [PD98059],ICAT expression,"ICAT; SW480 cells, 1 μM PD98059",did not affect
same,β-catenin/Tcf-4 activity,"[1]; SW480 cells, 1 μM PD98059 (ERK1/2 pathway inhibition)",did not affect
CC(C)(C)n1nc(-c2ccc(Cl)cc2)c2c(N)ncnc21 [PP2],ICAT expression,"ICAT; SW480 cells, 10 μM PP2",did not affect
same,β-catenin/Tcf-4 activity,"[1]; SW480 cells, 10 μM PP2 (Src pathway inhibition)",did not affect
"GAST-specific siRNA oligonucleotides: rhodamine-tagged siRNA directed against the human GAST gene; siRNAs hPG sense 5′-GAAGAAGCCUAUGGAUGGATT-3′ (SEQ ID No 27), antisense SEQ ID No 28 (antisense UCCAUCCAUAGGCUUCUUCTT; rhodamine-tagged siRNA, tag position not given here)",caspase-3 activation,SW480 cells [2]; [8],detection of caspase-3 activation
same,expression of genes encoding chromogranin A or enterocyte-specific alkaline phosphatase,SW480 cells [2]; [8],without detectable alterations
same,expression of the goblet cell-specific gene Muc-2,"SW480 cells [2]; transient transfection with siRNA, versus β-galactosidase siRNA",significant induction
"amidated gastrin17: COOH terminally amidated gastrin, maturation product of progastrin (QGPWLEEEEEAYGWMDF-NH2; ends and bridges not checked) [reference compound]",β-catenin/Tcf-4 activity,[1]; [7],did not affect
same,differentiation and apoptosis phenotypes of GAST siRNA-transfected cells,SW480 cells [2]; [9],had no effect
B1,ability to form tumors,SW480 cells [3],greatly reduced
B2,ICAT expression,"ICAT; SW480/GAST(−) cells, 5 nM recombinant progastrin",De novo repression
same,β-catenin/Tcf-4 transcriptional activity (TOP/FOP luciferase reporter),"[1]; SW480/GAST(−) clones, 5 nM recombinant progastrin, 72 h",restore a strong level of transcription
same,nuclear compartmentation of β-catenin and Tcf-4,[4],partially restored
same,"expression of Tcf-4 target genes (c-myc, cyclin D1, Sox-9 and claudin-1)",[5],significantly stimulated
same,binding partner of β-catenin (Tcf-4 versus ICAT),[6],preferentially bound to Tcf-4
same,serine 473-phosphorylation of Akt/PKB,Akt/PKB,reinstated
same,differentiation and apoptosis phenotypes of GAST siRNA-transfected cells,SW480 cells [2]; recombinant progastrin for 48 h,reversed
same,decrease of expression and activity of ILK,ILK,partially reversed
B3,β-catenin/Tcf-4 activity,[1]; [7],did not affect
same,differentiation and apoptosis phenotypes of GAST siRNA-transfected cells,SW480 cells [2]; [9],had no effect
